Values quoted from earlier work in paper PMC8070256, “Feasibility of Developing Radiotracers for MDM2: Synthesis and Preliminary Evaluation of an ^18F-Labeled Analogue of the MDM2 Inhibitor SP-141” (Pharmaceuticals, 2021).

Target: MDM2 (Homo sapiens) (UniProt Q00987)
Sequence (Q00987 whole entry): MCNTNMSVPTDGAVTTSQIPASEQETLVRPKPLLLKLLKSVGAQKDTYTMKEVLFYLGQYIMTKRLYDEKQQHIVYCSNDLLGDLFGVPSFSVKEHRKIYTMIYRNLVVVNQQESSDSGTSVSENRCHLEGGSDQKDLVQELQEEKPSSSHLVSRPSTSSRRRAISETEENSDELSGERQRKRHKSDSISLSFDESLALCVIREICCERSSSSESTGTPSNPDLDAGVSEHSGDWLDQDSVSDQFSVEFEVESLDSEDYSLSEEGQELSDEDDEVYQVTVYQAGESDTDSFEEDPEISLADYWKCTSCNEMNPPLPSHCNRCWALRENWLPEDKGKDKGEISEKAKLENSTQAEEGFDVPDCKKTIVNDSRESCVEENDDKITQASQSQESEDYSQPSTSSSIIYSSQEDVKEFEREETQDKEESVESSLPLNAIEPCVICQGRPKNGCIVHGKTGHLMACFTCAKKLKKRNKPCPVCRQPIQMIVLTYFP

p53 peptide (from UniProt P04637)
Ki: 1100 nM
